Positions of bridges follow the written chain, without caps; N, C: chain ends. Residues, ends and D or L forms follow the SMILES beside them. *: point of attachment. X1 = CC(CCC(C)C(=O)*)C(=O)OCC(=O)[C@@]1(O)[C@H](C)C[C@H]2[C@@H]3CCC4=CC(=O)C=C[C@]4(C)[C@@]3(F)[C@@H](O)C[C@@]21C

This data set deals with CIA rats. The procedure: Arthritis was induced in 9-week-old female Lewis rats (Envigo or Charles River Laboratories) by intradermal injection while anesthetized of 400 ug bovine type II collagen (Chondrex Inc, Redmond Wash.) in 2 adjacent 200 ul (1 mg/ml) doses on day 0. Collagen is prepared for injection by dissolving at 2 mg/ml in 0.01N glacial acetic acid in sterile water and rocking at 4° C. overnight then emulsifying in Freund's incomplete adjuvant (IFA, Sigma Aldrich). To emulsify, equal volumes of collagen solution and IFA are drawn up into separate syringes, which are joined by a 3-way stopcock. While on ice, the collagen and IFA are mixed by pressing between the two syringes rapidly for 10 minutes. Quality of the emulsification is tested after 10 minutes of mixing by dropping a small amount of mixture in water. A properly emulsified solution will remain as a discrete droplet and not disperse in the water. On day 7, rats are challenged with a second intradermal injection of 100 ug of collagen in 100 ul, 1 mg/ml, collagen in IFA solution prepared fresh. Body weight and ankle diameter measurements are recorded daily from day 7 through the end of the study. Ankle diameter was measure by a single researcher using a Fowler Digitrix 2 micrometer. Three measurements of each ankle were taken of the lateral dimension at the tarsus of lightly anesthetized rats. The reported ankle diameter measurement is the mean of the three measurements.
Arthritis was induced as described in four cohorts of 9-week-old female Lewis rats. Rats were randomly placed in treatment groups, balancing compound and dose groups across cohorts. […] Rats were dosed by tail vein injection on days 11 and 12 and euthanized on day 13 by CO2 asphyxiation. Immediately after cessation of respiratory movement, blood was collected by cardiac puncture, synovial fluid was collected from both knees, one hind limb was fixed in formalin and the alternate ankle was frozen on dry ice. Thymus, spleen, liver, and kidney weights were recorded.
CIA Response study design.
The aim of the study was to test the 4 conjugates with various linkers at two different doses in vivo in CIA rats to assess the following: ability to deliver sufficient dexamethasone to the joint to show functionality and potential therapeutic effect in the disease model.
CIA was induced in female Lewis rats (as described above, see EXAMPLE 21). Body weight and ankle joint diameters were measured on day 0 and then daily from day 7 until euthanasia. […] At euthanasia, synovial fluid was collected from both knees, one hind limb was fixed in formalin and the alternate ankle was frozen on dry ice. Thymus, spleen, liver, and kidney weights were recorded. Blood samples were submitted for CBC/Chemistry analysis, and the remaining plasma was frozen.

Take `CC[C@H](C)[C@@H]1NC(=O)[C@@H]2CSSC[C@H](NC(=O)[C@H](CCCNC(=N)N)NC(=O)[C@@H](NC(=O)[C@H](CC(N)=O)NC(=O)[C@@H](NC(=O)[C@@H]3CCCN3C(=O)[C@@H](NC(=O)CNC(=O)[C@H](CO)NC(=O)CNC(=O)C(C)CCC(C)C(=O)OCC(=O)[C@@]3(O)[C@H](C)C[C@H]4[C@@H]5CCC6=CC(=O)C=C[C@]6(C)[C@@]5(F)[C@@H](O)C[C@@]43C)C(C)C)[C@@H](C)CC)C(C)C)C(=O)N[C@@H](CCCNC(=N)N)C(=O)NCC(=O)N[C@@H](CO)C(=O)N[C@@H](CCCNC(=N)N)C(=O)N[C@@H](CC(=O)O)C(=O)N[C@H]3CSSC[C@H](NC(=O)[C@H](CCCNC(=N)N)NC(=O)[C@H](CO)NC(=O)[C@H](CC(N)=O)NC1=O)C(=O)N[C@@H](Cc1c[nH]cn1)C(=O)N[C@H](C(=O)N[C@H](C(=O)N1CCC[C@H]1C(=O)O)[C@@H](C)O)CSSC[C@H](NC(=O)[C@@H]1CCCN1C(=O)[C@H](CC(=O)O)NC(=O)[C@H](CC(C)C)NC3=O)C(=O)N[C@@H](CCCNC(=N)N)C(=O)N[C@@H](CCCNC(=N)N)C(=O)N[C@@H](C)C(=O)NCC(=O)N[C@@H](CCSC)C(=O)N[C@@H](CCCNC(=N)N)C(=O)N[C@@H](Cc1ccccc1)C(=O)NCC(=O)N[C@@H](CCCNC(=N)N)C(=O)N2` (stereo partly shown) [Compound 27, peptide(SEQ ID NO: 105)-[dimethyladipic acid]-Dex] (X1-GSGVPINVRCRGSRDCLDPCRRAGMRFGRCINSRCHCTP-OH; disulfide 10-30, 16-35, 20-37 (inferred); C-terminus assumed): the “ankle swelling over time as compared to vehicle” value (0.2 mg/kg and 0.5 mg/kg Dex equivalents IV days 11 and 12) is listed as “reduction in ankle swelling”. Further, under “0.2 mg/kg and 0.5 mg/kg dose”, the spleen weight result is recorded as “reduction”, the thymus weight result was “reduction” and the total body weight entry is given as “reduction”. Moreover, for the setting “0.2 mg/kg dose”, the “change in median ankle diameter between day 11 and day 13 as compared to vehicle” value is recorded as “statistically significant reduction in ankle diameter”; the “difference from Dex in change in ankle diameter” value was “no statistically significant difference”. The mortality and tolerability entry (1 mg/kg Dex equivalents IV, some rats) is “died overnight”.

(Values after patent US20210252159A1, “CONJUGATES OF CARTILAGE-HOMING PEPTIDES” (priority 2018, published 2021).)
